Results taken from US20080234471A1.

How the values were obtained:
GnGn-peptide [1] = target: GnGn-peptide
GnGn-peptide [2] = target: GnGn-peptide; remark: listed apart in the source

Row | Specific activity (GnGn-peptide [1]) [mU/mg] | Rel. Activity (MM-peptide) [%] | Km-Value (GnGnF^6-peptide) [µM] | Km-Value (GnGn-peptide [2]) [µM] | Substance
1 | 43400 |  |  |  | GlcNAc-α1,3-fucosyl transferase isolated from mung bean seedlings (enzyme)
2 |  | 0 | 130 | 190 | recombinant GlcNAc-α1,3-fucosyl transferase (enzyme)
